Source: patent US20140179898A1

Molecular target: IgG1-type humanized monoclonal antibody
Test: stepwise pH affinity chromatography (bound at pH 7.0, elution buffer pH 4.0), bought column

Q: Which pH of the antibody's elution peak does the source give for “HiTrap rProtein A FF (GE Healthcare) (from UniProt P38507 37-327)” here?
A: 3.7 pH
